Assay results as given in patent US20050130920A1 (published 2005).

Molecular target: T1, HLA-A2.1 on T2 cells (empty or unstable surface MHC class I, with added beta-2 microglobulin) (human)
T1 construct: it is treated here as the same molecule; also called HLA-A*0201
Assay: T2 cell HLA-A2.1 stabilisation, W6/32 staining, flow cytometry
Description: T2 cells, which express empty or unstable MHC molecules on their surfacer were washed twice and suspended at 5×10⁶ cells/ml in serum-free complete Iscove's modified Dulbecco's medium (IMDM). B2 microglobulin (Sigma, St. Louis, Mo.) was added at 5 μg/ml and the cells distributed to a 96-well U-bottom plate at 5×10⁵ cells/well. Peptides were added at 100, 10, 1 and 0.1 μg/ml. The plate was rocked gently for 2 minutes and then incubated for 4 hours in a 5% CO₂ incubator at 37° C. After the unbound peptide was removed by washing twice with IMDM, a saturating amount of monoclonal antibody W6/32 (Sigma) was added. After incubation for 30 minutes at 4° C., cells were washed with PBS supplemented with 1% heat-inactivated FCS, 0.1% (w:v) sodium azide, pH 7.4-7.6 (staining buffer), and incubated with fluorescein isothiocyanate (FITC)-conjugated goat F(ab′) antimouse-IgG (Sigma) for 30 min at 4° C. and washed four times as before. The cells were resuspended in staining buffer and fixed by adding a quarter volume of 2% paraformaldehyde.

B1: tyrosinase 207-216, FLPWHRLFLL (candidate tyrosinase housekeeping epitope) (peptide)
peptide: FLPWHRLFLL
notes: Synthetic 10-mer added to T2 cells at 100, 10, 1 and 0.1 ug/ml
binding result: binds
